In data set [1] the target is cysteine-less TREK2 S105C (Gly67 to Glu340). The data set can be described thus: SEC; Superdex-200 10/300, 20 mM Tris, 150 mM KCl, 2 mM DDM, pH 8, 4 °C; oligomer fractions of labelled TREK2 collected.
Data set [2] deals with the molecule itself. Nature of the data set: SEC; Superdex-200 10/300, 20 mM Hepes, 150 mM KCl, 5 mM DM, pH 7.5, 4 °C; tetrameric fractions pooled (again after fluorophore labelling). In general terms: Size exclusion chromatography separates by hydrodynamic size, large species first.

Residue numbers refer to the chain shown, from its start. Numbers in names are those of the source.

“cysteine-less TREK2 S105C (Gly67 to Glu340)”: the stoichiometry N – broadly, a count of units in the complex or per binding partner – in data set [1] turned out to be 2.

B1: tandem dimeric NaK Δ19 T73C (other)
chain: KDKEFQVLFVLTILTLISGTIFYSTVEGLRPIDALYFSVVTLTTVGDGNFSPQCDFGKIFTILYIFIGIGLVFGFIHKLAVNVQLPSILSNRKKEGGGSGGGSKDKEFQVLFVLTILTLISGTIFYSTVEGLRPIDALYFSVVTLTTVGDGNFSPQTDFGKIFTILYIFIGIGLVFGFIHKLAVNVQLPSILSNRKKE
modifications: Alexa Fluor 555 or Alexa Fluor 647 c2 maleimide on T73C
notes: NaK (Na+- and K+-conducting) channel from Bacillus cereus, Δ19 construct, first subunit (S1) of the tandem, carries T73C; linker between the two copies; NaK channel from Bacillus cereus, Δ19 construct, second subunit of the tandem, without cysteine; pET28a; Two tandem dimers form the tetrameric channel; whether a His8 also follows the first copy inside the tandem is not clear; also called NaK …
Consider B1, for which, in data set [2], the binding result is reported as “binds”.

B2: tandem dimeric NaK2K Δ19 T73C (other)
chain: B1 chain with D47Y, N49D, D150Y, N152D
modifications: Alexa Fluor 555 or Alexa Fluor 647 c2 maleimide on T73C
notes: NaK channel from Bacillus cereus, Δ19 construct, NaK2K mutant (selectivity filter TVGDGN changed to TVGYGD), first subunit (S1) of the tandem, carries T73C; positions 63-68 are worked out from the printed Asn68; linker between the two copies; NaK channel from Bacillus cereus, Δ19 construct, NaK2K mutant (TVGDGN changed to TVGYGD), second subunit of the tandem, without cysteine; pET28a; Two tandem …
In the case of B2, the binding result in data set [2] was “binds”.

B3: monomeric NaK Δ19 T73C (with F92A) (other)
chain: KDKEFQVLFVLTILTLISGTIFYSTVEGLRPIDALYFSVVTLTTVGDGNFSPQCDFGKIFTILYIFIGIGLVAGFIHKLAVNVQLPSILSNRKKE
notes: NaK channel from Bacillus cereus, Δ19 construct, monomeric; In the cross-linking experiment T73C was reacted with bis-maleimide PEG (Bis-Mal-dPEG3, 3 nm, or Bis-Mal-dPEG11, 6 nm); also called NaK T73C; not shown: His8, C-terminal, kept
For B3, the “stoichiometry N” value in data set [2] is 4.

B4: monomeric NaK2K Δ19 T73C (with F92A) (other)
chain: B3 chain with D47Y, N49D
notes: NaK channel from Bacillus cereus, Δ19 construct, NaK2K mutant (TVGDGN changed to TVGYGD), monomeric; positions 63-68 are worked out from the printed Asn68; Channels 'formed as tetramers of monomeric, not tandem dimeric, constructs'; In the cross-linking experiment T73C was reacted with bis-maleimide PEG (3 nm or 6 nm); also called NaK2K T73C; not shown: His8, C-terminal, kept
For the molecule B4, the “stoichiometry N” value in data set [2] was determined as 4.

For the origin of these results see PMC9822992, “Conformational plasticity of NaK2K and TREK2 potassium channel selectivity filters” (Nature Communications, 2023).
